Here are results for one protein from article PMC3946754, “Two-Stage pH Control Strategy Based on the pH Preference of Acetoin Reductase Regulates Acetoin and 2,3-Butanediol Distribution in Bacillus subtilis” (PLoS ONE, 2014).

Substrate in series [1]: CC(O)C(C)O
The series can be described thus: purified protein. The conditions noted are these: oxidation, co-substrate NAD+ (standard assay 1.2 mM NAD+, pH 8.5, 25°C preincubation), stereoisomer not told, printed kcat/Km does not fit kcat and Km.

Substrate in series [2]: NC(=O)c1ccc[n+]([C@@H]2O[C@H](COP(=O)(O)OP(=O)(O)OC[C@H]3O[C@@H](n4cnc5c(N)ncnc54)[C@H](O)[C@@H]3O)[C@@H](O)[C@H]2O)c1
The series can be described thus: NAD+ reduction assay, Lineweaver-Burk plot. Type of series: biochemical, Bacillus subtilis. The conditions noted are these: oxidation, co-substrate 2,3-butanediol (standard assay 10 mM, pH 8.5), printed kcat/Km does not fit kcat and Km, varied: cofactor.

Substrate in series [3]: CC(=O)C(C)O
The series can be described thus: NADH oxidation assay, Lineweaver-Burk plot. Type of series: biochemical, Bacillus subtilis. The conditions noted are these: reduction, co-substrate NADH (standard assay 0.2 mM NADH, PBS pH 6.5, 25°C preincubation), stereoisomer not told, 25.0 °C.

Substrate in series [4]: NC(=O)C1=CN([C@@H]2O[C@H](COP(=O)(O)OP(=O)(O)OC[C@H]3O[C@@H](n4cnc5c(N)ncnc54)[C@H](O)[C@@H]3O)[C@@H](O)[C@H]2O)C=CC1
The series can be described thus: NADH oxidation assay, Lineweaver-Burk plot. The note with it: reduction, co-substrate acetoin (standard assay 10 mM, pH 6.5), printed kcat/Km does not fit kcat and Km, varied: cofactor. Type of series: biochemical, Bacillus subtilis.

B1: AR/BDH (acetoin reductase/2,3-butanediol dehydrogenase) (Bacillus subtilis subsp. subtilis str. 168) (protein)
chain: MKAARWHNQKDIRIEHIEEPKTEPGKVKIKVKWCGICGSDLHEYLGGPIFIPVDKPHPLTNETAPVTMGHEFSGEVVEVGEGVENYKVGDRVVVEPIFATHGHQGAYNLDEQMGFLGLAGGGGGFSEYVSVDEELLFKLPDELSYEQGALVEPSAVALYAVRSSKLKAGDKAAVFGCGPIGLLVIEALKAAGATDIYAVELSPERQQKAEELGAIIVDPSKTDDVVAEIAERTGGGVDVAFEVTGVPVVLRQAIQSTTIAGETVIVSIWEKGAEIHPNDIVIKERTVKGIIGYRDIFPAVLSLMKEGYFSADKLVTKKIVLDDLIEEGFGALIKEKSQVKILVRPN
notes: full length, C-terminal His6 tag (from primer, not reported cut); pMA5-bdhA expressed in B. subtilis JNA 3-10; Ni-NTA and Superdex 200; subunit 38-39 kDa by SDS-PAGE
As to B1, in series [1], the Km is 260 ± 9 µM, the Vmax came to 2.34 µM/min and the kcat is 0.00233 s⁻¹. In series [2], the Km came out at 80 ± 2 µM, the Vmax was 14 µM/min and the kcat is 0.0232 ± 0.000267 s⁻¹. Moreover, in series [3], the Km was 160 ± 5 µM, the Vmax was found to be 5.54 µM/min, the kcat was found to be 0.00567 ± 0.0002 s⁻¹ and the kcat/Km is 35.5 M⁻¹ s⁻¹. In addition, in series [4], the Km amounted to 40 ± 1 µM, the Vmax amounted to 14.2 µM/min and the kcat turned out to be 0.0235 ± 0.00035 s⁻¹.

Usually Km stands for the concentration of substrate that gives half-maximal velocity. What is called Vmax is the rate approached at saturating substrate. In general, kcat refers to the number of substrate molecules converted per active site and unit of time at saturation. Usually kcat/Km stands for the turnover number divided by the Michaelis constant.
